Laboratory results published in paper PMC3684959 (2013).

Molecular target: Arp2/3 complex (Bos taurus, UniProt A7MB62, CK-666)
Assay: fluorescence anisotropy

B1: cortactin NTA N-terminal acidic region (protein)
chain: MWKASAGHAVSIAQDDAGADDWETDPDFVNDVSEKEQRWGAKTVQGSGHQEHINIHKLRENVFQEHQTLKEKELETGPKASHGY
Kd: 1200 nM
